Experimental data published in IntAct's records for PubMed 11739401.

B1: Ras-related protein Rab-2A (Homo sapiens), P61019 (parent)
chain: MAYAYLFKYIIIGDTGVGKSCLLLQFTDKRFQPVHDLTIGVEFGARMITIDGKQIKLQIWDTAGQESFRSITRSYYRGAAGALLVYDITRRDTFNHLTTWLEDARQHSNSNMVIMLIGNKSDLESRREVKKEEGEAFAREHGLIFMETSAKTASNVEEAFINTAKEIYEKIQEGVFDINNEANGIKIGPQHAATNATHAGNQGGQQAGGGCC
partner: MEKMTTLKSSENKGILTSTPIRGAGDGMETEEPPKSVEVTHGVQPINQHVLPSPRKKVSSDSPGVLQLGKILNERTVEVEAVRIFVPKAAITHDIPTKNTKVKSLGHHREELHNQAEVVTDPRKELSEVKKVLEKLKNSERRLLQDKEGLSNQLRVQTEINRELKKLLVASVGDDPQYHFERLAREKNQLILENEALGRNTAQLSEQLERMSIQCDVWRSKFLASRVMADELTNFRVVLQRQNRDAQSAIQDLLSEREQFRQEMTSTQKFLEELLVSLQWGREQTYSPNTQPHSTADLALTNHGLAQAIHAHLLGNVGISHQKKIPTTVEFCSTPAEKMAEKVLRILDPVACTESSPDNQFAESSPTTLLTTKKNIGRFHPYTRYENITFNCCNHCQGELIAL

Variants of: B1
Conditions: with go45_mouse Blzf1, Q8R2X8

| effect of a mutation on the interaction | Variant |
| --- | --- |
| increasing interaction | Q65L |
